According to paper PMC4242082, “Mechanistic determinants of the directionality and energetics of active export by a heterodimeric ABC transporter” (Nature Communications, 2014):
Substitutions are numbered along the chain they refer to. Names and notes keep the numbering of the source. Ends that are not written are not given here.

B1: rat TAP1-NBD Walker B mutant (D645N) (domain or fragment)
chain: SPLSGSLAPLNMKGLVKFQDVSFAYPNHPNVQVLQGLTFTLYPGKVTALVGPNGSGKSTVAALLQNLYQPTGGKVLLDGEPLVQYDHHYLHTQVAAVGQEPLLFGRSFRENIAYGLTRTPTMEEITAVAMESGAHDFISGFPQGYDTEVGETGNQLSGGQRQAVALARALIRKPRLLILDNATSALDAGNQLRVQRLLYESPEWASRTVLLITQQLSLAERAHHILFLKEGSVCEQGTHLQLMERGGCYRSMVEALAAPSD
notes: Model system for NBD homodimerisation; also called Walker B D645N; hydrolysis-deficient Walker B mutant; source: E. coli BL21(DE3), purified (Ni-NTA, Superdex200)
B2: rat TAP1-NBD Walker B/D-loop double mutant (D645N/D651A) (domain or fragment)
chain: B1 chain with D187A
notes: D651A of rat TAP1 is equivalent to D674A of human TAP1; also called Walker B D645N/D-loop D651A; rat TAP1 NBD D645N/D651A; source: E. coli BL21(DE3), purified (Ni-NTA, Superdex200)
B3: TAP (TAP1/TAP2 complex; wt TAP) (Homo sapiens) (protein)
chain 1: MASSRCPAPRGCRCLPGASLAWLGTVLLLLADWVLLRTALPRIFSLLVPTALPLLRVWAVGLSRWAVLWLGACGVLRATVGSKSENAGAQGWLAALKPLAAALGLALPGLALFRELISWGAPGSADSTRLLHWGSHPTAFVVSYAAALPAAALWHKLGSLWVPGGQGGSGNPVRRLLGCLGSETRRLSLFLVLVVLSSLGEMAIPFFTGRLTDWILQDGSADTFTRNLTLMSILTIASAVLEFVGDGIYNNTMGHVHSHLQGEVFGAVLRQETEFFQQNQTGNIMSRVTEDTSTLSDSLSENLSLFLWYLVRGLCLLGIMLWGSVSLTMVTLITLPLLFLLPKKVGKWYQLLEVQVRESLAKSSQVAIEALSAMPTVRSFANEEGEAQKFREKLQEIKTLNQKEAVAYAVNSWTTSISGMLLKVGILYIGGQLVTSGAVSSGNLVTFVLYQMQFTQAVEVLLSIYPRVQKAVGSSEKIFEYLDRTPRCPPSGLLTPLHLEGLVQFQDVSFAYPNRPDVLVLQGLTFTLRPGEVTALVGPNGSGKSTVAALLQNLYQPTGGQLLLDGKPLPQYEHRYLHRQVAAVGQEPQVFGRSLQENIAYGLTQKPTMEEITAAAVKSGAHSFISGLPQGYDTEVDEAGSQLSGGQRQAVALARALIRKPCVLILDDATSALDANSQLQVEQLLYESPERYSRSVLLITQHLSLVEQADHILFLEGGAIREGGTHQQLMEKKGCYWAMVQAPADAPE
chain 2: MRLPDLRPWTSLLLVDAALLWLLQGPLGTLLPQGLPGLWLEGTLRLGGLWGLLKLRGLLGFVGTLLLPLCLATPLTVSLRALVAGASRAPPARVASAPWSWLLVGYGAAGLSWSLWAVLSPPGAQEKEQDQVNNKVLMWRLLKLSRPDLPLLVAAFFFLVLAVLGETLIPHYSGRVIDILGGDFDPHAFASAIFFMCLFSFGSSLSAGCRGGCFTYTMSRINLRIREQLFSSLLRQDLGFFQETKTGELNSRLSSDTTLMSNWLPLNANVLLRSLVKVVGLYGFMLSISPRLTLLSLLHMPFTIAAEKVYNTRHQEVLREIQDAVARAGQVVREAVGGLQTVRSFGAEEHEVCRYKEALEQCRQLYWRRDLERALYLLVRRVLHLGVQMLMLSCGLQQMQDGELTQGSLLSFMIYQESVGSYVQTLVYIYGDMLSNVGAAEKVFSYMDRQPNLPSPGTLAPTTLQGVVKFQDVSFAYPNRPDRPVLKGLTFTLRPGEVTALVGPNGSGKSTVAALLQNLYQPTGGQVLLDEKPISQYEHCYLHSQVVSVGQEPVLFSGSVRNNIAYGLQSCEDDKVMAAAQAAHADDFIQEMEHGIYTDVGEKGSQLAAGQKQRLAIARALVRDPRVLILDEATSALDVQCEQALQDWNSRGDRTVLVIAHRLQTVQRAHQILVLQEGKLQKLAQL
notes: full-length heterodimer from Sf9 insect cells (baculovirus), purified and reconstituted in proteoliposomes, or in membranes

Legend:
[1] = target: wild-type TAP (human TAP1/TAP2 complex) (human) (UniProt Q03518)
[2] = target: D674A/wt TAP complex (human TAP1 D674A with wt TAP2) (human) (UniProt Q03519)
[3] = target: P36370; test: AUC; sedimentation velocity, with ADP; 33 μM protein, 40,000 r.p.m., 10 °C, 14 h; 20 mM Tris pH 8.0, 50 mM NaCl, 5 mM MgCl2; c(S) model (Sedfit)
[4] = target: the molecule itself; test: AUC; sedimentation equilibrium, with ADP; 12,000, 15,000 and 22,000 r.p.m., 10 °C; 3, 11 and 33 μM protein; 20 mM Tris pH 8.0, 50 mM NaCl, 5 mM MgCl2; monomer-dimer self-association model (SedPhat); dimer to monomers
[5] = target: P36370; test: AUC; sedimentation velocity, with ATP; 33 μM protein, 40,000 r.p.m., 10 °C, 14 h; 20 mM Tris pH 8.0, 50 mM NaCl, 5 mM MgCl2; c(S) model (Sedfit)
[6] = target: the molecule itself; test: AUC; sedimentation equilibrium, with ATP; 12,000, 15,000 and 22,000 r.p.m., 10 °C; 3, 11 and 33 μM protein; 20 mM Tris pH 8.0, 50 mM NaCl, 5 mM MgCl2; monomer-dimer self-association model (SedPhat); dimer to monomers
[7] = target: the molecule itself; test: AUC; sedimentation velocity, with ATP; 33 μM protein, 40,000 r.p.m., 10 °C, 14 h; 20 mM Tris pH 8.0, 50 mM NaCl, 5 mM MgCl2; c(S) model (Sedfit)
[8] = substrate: Nc1ncnc2c1ncn2[C@@H]1O[C@H](COP(=O)(O)OP(=O)(O)OP(=O)(O)O)[C@@H](O)[C@H]1O; test: ATP-dependent transport of RRYC(FL488)KSTEL in proteoliposomes; assay type: biochemical, Homo sapiens; settings: peptide 1 μM, Mg2+, pH 7.4, 37 °C
From the text: ATP-dependent transport of RRYC(FL488)KSTEL in proteoliposomes on TAP (TAP1/TAP2 complex; wt TAP) | the Michaelis–Menten kinetics for peptide transport by wt TAP and D674A/wt are equal

Row | Binder | lumenal peptide concentration reached in proteoliposomes at high external peptide (for example 100 μM): trans-inhibition [1] [µM] | EC50 of lumenal peptide accumulation in proteoliposomes after 1 h at different external peptide concentrations, given as Kd of a low-affinity lumenal peptide-binding site [2] [µM] | lumenal peptide concentration reached in proteoliposomes at high external peptide (for example 100 μM): trans-inhibition [2] [µM] | 2nd/1st ratio (dimer to monomer peaks) [3] | Kd [4] [µM] | 2nd/1st ratio (dimer to monomer peaks) [5] | Kd [6] [µM] | stoichiometry N [7] | Km [8] [µM]
1 | RRYC(Atto633)KSTEL [Atto633-labelled peptide RRYC(AT633)KSTEL] | < 16 | 10.7 | < 16 | – | – | – | – | – | –
2 | B1 | – | – | – | 0.68 | 111 | 2.61 | 22.4 | 2 | –
3 | B2 | – | – | – | 0.26 | 164 | 0.11 | 170 | – | –
4 | B3 | – | – | – | – | – | – | – | – | 99 ± 24
